From patent US8691944 (RESEARCH FOUNDATION FOR THE STATE UNIVERSITY OF NEW YORK, dated 2014)

B5: platelet-derived growth factor-BB (PDGF-BB) (ligand, UniProt P01127 82-190, looked up)
chain: SLGSLTIAEPAMIAECKTRTEVFEISRRLIDRTNANFLVWPPCVEVQRCSGCCNNRNVQCRPTQVQLRPVQVRKIEIVRKKPIFKKATVTLEDHLACKCETVAAARPVT
notes: Two B chains by its name BB
B6: EGF (ligand, UniProt P01133 971-1023, looked up)
chain: NSDSECPLSHDGYCLHDGVCMYIEALDKYACNCVVGYIGERCQYRDLKWWELR

Tests used:
[1] = target: transforming growth factor-β1 (TGF-β1) (UniProt P01137 279-390); assay: equilibrium binding
Chain of transforming growth factor-β1 (TGF-β1) (P01137 279-390 limits assumed): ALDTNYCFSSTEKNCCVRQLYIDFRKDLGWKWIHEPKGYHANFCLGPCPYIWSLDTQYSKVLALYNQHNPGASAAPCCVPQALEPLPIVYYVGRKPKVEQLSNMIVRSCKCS

[2] = target: T1, FNIII12-V15 (HV), composite heparinII-binding and variably-spliced IIICS domains of fibronectin (human, UniProt P02751 1812-2288); assay: plasmon resonance
T1 construct: domain: FNIII12-V15; Recombinant domain made in E. coli; Some constructs carried GST at the C-terminus
T1 sequence (P02751 other isoform, or with tags, fused parts or gaps limits assumed): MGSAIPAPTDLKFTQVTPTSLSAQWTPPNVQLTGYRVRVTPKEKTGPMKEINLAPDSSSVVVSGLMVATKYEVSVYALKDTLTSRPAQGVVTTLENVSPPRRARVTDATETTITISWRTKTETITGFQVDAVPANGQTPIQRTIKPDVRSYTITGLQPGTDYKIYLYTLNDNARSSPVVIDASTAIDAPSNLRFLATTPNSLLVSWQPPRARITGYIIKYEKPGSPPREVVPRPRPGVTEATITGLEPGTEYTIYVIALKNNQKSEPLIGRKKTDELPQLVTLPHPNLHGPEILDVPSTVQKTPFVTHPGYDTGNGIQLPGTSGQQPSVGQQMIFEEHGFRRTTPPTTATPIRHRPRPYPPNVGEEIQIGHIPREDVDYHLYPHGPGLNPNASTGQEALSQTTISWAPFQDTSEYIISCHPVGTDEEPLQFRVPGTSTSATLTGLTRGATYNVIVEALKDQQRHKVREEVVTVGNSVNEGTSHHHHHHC

[3] = target: T2, 70 kDa amino terminus of FN (FN70) (UniProt P02751 32-608, limits assumed); assay: binding assay, method not restated
T2 construct: domain: 70 kDa amino terminus of FN (FN70); also called amino-terminal end of FN
T2 sequence (P02751 32-608 limits assumed): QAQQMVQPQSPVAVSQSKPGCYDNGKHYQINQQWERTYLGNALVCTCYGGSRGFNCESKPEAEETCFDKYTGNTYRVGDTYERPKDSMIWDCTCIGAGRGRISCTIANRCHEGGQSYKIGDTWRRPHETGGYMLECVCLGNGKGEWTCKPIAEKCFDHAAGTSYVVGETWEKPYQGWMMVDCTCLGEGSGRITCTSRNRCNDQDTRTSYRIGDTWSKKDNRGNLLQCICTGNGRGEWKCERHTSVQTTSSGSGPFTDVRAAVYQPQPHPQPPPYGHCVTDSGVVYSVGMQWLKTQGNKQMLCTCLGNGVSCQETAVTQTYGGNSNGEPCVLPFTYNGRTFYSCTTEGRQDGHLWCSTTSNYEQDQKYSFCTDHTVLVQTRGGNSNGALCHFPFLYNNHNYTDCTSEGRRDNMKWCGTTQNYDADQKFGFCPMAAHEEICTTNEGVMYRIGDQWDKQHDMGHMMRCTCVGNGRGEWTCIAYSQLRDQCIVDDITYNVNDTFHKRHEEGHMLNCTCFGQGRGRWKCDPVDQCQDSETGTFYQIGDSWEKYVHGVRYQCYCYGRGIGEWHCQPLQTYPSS

[4] = target: T3, FNIII8-11 (C), central cell-binding domain of fibronectin containing RGD (human, UniProt P02751 1357-1721); assay: binding assay, method not restated
T3 construct: domain: FNIII8-11; Recombinant domain
T3 sequence (P02751 other isoform, or with tags, fused parts or gaps limits assumed): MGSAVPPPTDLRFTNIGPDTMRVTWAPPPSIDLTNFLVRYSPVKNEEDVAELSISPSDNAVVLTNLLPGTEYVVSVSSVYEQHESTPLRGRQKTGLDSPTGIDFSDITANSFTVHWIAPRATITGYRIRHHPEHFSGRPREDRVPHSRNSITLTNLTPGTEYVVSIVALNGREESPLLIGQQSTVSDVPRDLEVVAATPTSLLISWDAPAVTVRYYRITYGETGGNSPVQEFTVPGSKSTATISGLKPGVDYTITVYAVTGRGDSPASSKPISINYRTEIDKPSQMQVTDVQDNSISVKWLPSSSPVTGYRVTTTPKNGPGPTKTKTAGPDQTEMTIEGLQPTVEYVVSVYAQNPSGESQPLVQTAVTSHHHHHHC

FNIII1-11 = target: T4, FNIII1-11 (human, UniProt P02751-1 610-1630); assay: binding assay, method not restated
T4 construct: domain: FNIII1-11; Recombinant domain

[5] = target: B5; assay: peptide binding assay
EGF = target: B6; assay: binding assay, method not restated
TGF-α = TGF-α (UniProt P01135 40-89); assay: binding assay, method not restated
Chain of TGF-α (P01135 40-89 limits assumed): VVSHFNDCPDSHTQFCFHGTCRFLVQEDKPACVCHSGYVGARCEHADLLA

FGF-1 = FGF-1 (UniProt P05230 16-155, limits assumed); assay: binding assay, method not restated
Chain of FGF-1 (P05230 16-155 limits assumed): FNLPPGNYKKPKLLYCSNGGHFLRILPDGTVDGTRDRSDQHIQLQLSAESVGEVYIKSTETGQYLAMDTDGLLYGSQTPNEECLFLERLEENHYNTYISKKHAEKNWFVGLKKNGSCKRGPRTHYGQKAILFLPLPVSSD

FNIII1-7 [6] = target: T5, FNIII1-7 (UniProt P02751 610-1265, limits assumed); assay: equilibrium binding
T5 construct: domain: FNIII1-7
T5 sequence (P02751 610-1265 limits assumed): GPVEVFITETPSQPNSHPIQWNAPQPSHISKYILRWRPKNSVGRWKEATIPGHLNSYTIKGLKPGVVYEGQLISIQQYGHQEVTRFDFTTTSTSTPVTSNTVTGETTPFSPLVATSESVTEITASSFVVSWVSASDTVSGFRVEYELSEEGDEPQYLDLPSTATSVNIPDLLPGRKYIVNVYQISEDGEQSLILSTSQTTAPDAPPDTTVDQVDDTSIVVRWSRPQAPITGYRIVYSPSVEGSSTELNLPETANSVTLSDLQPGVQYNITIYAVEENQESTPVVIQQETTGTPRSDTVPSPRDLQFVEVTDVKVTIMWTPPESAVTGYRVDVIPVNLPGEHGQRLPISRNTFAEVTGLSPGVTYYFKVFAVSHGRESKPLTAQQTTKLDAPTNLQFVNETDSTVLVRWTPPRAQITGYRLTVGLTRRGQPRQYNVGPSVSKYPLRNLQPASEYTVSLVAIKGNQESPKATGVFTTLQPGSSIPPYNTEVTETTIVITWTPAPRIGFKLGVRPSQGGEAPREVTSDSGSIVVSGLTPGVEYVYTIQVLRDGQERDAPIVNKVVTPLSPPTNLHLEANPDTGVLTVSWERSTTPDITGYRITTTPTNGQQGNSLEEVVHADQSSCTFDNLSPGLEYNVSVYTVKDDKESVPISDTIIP

FNIII1-2 [7] = target: T6, FNIII1-2 (human, UniProt P02751 610-809, limits assumed); assay: equilibrium binding
T6 construct: domain: FNIII1-2; Recombinant domain

FNIII3-6 [8] = target: T7, FNIII3-6 (human, UniProt P02751 810-1172, limits assumed); assay: equilibrium binding
T7 construct: domain: FNIII3-6; Recombinant domain

[9] = target: T1, FNIII12-V15 (HV), composite …; assay: equilibrium binding
[10] = target: T8, FNIII12-15 (H), heparinII-binding domain of fibronectin (human, UniProt P02751-10 1631-1987); assay: equilibrium binding
T8 construct: domain: FNIII12-15; Recombinant domain; also called HepII domain

FNIII12-14 [11] = target: T9, FNIII12-14 (human, UniProt P02751 1812-2082); assay: equilibrium binding
T9 construct: domain: FNIII12-14; Recombinant domain
T9 sequence (P02751 other isoform, or with tags, fused parts or gaps limits assumed): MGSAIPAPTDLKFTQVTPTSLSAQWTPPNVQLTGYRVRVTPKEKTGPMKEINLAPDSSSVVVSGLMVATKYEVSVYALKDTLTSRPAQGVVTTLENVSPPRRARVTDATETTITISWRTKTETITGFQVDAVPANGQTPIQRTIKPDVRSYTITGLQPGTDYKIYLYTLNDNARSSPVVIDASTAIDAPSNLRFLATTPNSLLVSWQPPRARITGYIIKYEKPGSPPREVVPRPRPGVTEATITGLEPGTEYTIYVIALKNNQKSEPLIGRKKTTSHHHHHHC

FNIII12-13 = target: T10, FNIII12-13 (UniProt P02751 1812-1992); assay: equilibrium binding
T10 construct: domain: FNIII12-13

FNIII1-2 [12] = target: T6, FNIII1-2; assay: surface plasmon resonance
FNIII1-7 [13] = target: T5, FNIII1-7; assay: plasmon surface resonance, kinetic binding
[14] = target: T1, FNIII12-V15 (HV), composite …; assay: plasmon surface resonance, kinetic binding
[15] = target: T2, 70 kDa amino terminus of FN (FN70); assay: equilibrium binding, confirmed by surface plasmon resonance
intact fibronectin [16] = target: T11, intact fibronectin (UniProt P02751-8 32-2296, limits assumed); assay: radiolabeled GF binding to intact FN, non linear regression
T11 construct: also called FN; intact FN
T11 sequence (P02751 other isoform, or with tags, fused parts or gaps limits assumed): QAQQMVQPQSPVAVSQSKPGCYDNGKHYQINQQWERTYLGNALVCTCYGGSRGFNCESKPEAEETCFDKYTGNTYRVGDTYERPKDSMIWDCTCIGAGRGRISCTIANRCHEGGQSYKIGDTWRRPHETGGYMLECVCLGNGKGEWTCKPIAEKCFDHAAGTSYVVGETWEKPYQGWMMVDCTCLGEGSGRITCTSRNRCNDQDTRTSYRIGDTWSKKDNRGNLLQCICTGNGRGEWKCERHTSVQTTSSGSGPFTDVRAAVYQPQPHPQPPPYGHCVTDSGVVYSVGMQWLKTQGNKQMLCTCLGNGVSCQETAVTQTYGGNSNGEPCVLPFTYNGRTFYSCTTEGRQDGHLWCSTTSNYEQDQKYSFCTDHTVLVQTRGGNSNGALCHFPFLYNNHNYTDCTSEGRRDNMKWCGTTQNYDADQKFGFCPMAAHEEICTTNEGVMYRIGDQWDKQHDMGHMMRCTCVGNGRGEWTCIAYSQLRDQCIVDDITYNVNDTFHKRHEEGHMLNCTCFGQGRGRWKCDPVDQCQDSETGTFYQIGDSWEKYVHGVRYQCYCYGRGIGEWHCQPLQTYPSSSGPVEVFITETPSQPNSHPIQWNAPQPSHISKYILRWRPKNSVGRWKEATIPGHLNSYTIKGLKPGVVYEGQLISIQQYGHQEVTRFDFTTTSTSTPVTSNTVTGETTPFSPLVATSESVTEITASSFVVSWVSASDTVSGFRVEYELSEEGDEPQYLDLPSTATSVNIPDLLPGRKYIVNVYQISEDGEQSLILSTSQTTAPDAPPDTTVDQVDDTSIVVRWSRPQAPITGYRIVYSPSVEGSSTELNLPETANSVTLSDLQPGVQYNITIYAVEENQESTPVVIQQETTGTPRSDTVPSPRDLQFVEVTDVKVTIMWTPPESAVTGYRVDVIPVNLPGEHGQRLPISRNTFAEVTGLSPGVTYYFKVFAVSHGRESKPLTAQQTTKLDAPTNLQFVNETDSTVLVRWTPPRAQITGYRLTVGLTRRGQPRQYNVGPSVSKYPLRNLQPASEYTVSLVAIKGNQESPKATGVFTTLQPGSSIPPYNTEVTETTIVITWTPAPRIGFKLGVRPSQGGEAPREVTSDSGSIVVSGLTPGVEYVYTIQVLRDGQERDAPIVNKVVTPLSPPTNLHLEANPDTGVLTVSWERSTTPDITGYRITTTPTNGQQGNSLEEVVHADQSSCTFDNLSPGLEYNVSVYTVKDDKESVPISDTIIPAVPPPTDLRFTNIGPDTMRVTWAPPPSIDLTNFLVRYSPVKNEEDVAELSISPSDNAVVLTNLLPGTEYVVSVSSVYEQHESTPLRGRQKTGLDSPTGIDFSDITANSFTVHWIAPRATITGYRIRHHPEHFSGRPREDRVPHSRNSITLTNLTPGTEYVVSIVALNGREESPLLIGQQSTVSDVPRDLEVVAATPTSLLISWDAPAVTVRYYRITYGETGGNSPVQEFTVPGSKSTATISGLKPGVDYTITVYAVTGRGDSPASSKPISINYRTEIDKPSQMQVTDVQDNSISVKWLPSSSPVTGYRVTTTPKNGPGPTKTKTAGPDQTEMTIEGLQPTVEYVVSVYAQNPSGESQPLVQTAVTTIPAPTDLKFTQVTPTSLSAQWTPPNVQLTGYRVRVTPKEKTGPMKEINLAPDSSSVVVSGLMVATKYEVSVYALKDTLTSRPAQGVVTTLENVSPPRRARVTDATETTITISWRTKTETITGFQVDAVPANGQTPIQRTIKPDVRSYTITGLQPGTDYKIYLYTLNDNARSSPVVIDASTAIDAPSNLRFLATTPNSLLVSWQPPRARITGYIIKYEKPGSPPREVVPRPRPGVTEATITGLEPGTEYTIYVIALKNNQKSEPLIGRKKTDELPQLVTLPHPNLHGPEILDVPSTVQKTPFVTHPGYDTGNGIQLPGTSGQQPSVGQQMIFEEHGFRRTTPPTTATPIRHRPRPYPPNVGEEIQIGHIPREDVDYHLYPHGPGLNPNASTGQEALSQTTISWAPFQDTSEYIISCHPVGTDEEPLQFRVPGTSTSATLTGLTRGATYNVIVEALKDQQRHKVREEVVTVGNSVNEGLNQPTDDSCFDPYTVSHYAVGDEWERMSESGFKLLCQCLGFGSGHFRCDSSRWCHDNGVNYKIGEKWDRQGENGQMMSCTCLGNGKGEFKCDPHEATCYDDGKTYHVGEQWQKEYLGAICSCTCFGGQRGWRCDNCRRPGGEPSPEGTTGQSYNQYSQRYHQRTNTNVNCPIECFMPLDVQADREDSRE

FNIII12-14 [17] = target: T9, FNIII12-14; assay: binding assay, method not restated (plasmon resonance in the sentence before)
FNIII1-7 [18] = target: T5, FNIII1-7; assay: equilibrium and kinetic binding
[19] = target: T2, 70 kDa amino terminus of FN (FN70); assay: equilibrium and kinetic binding
FNIII1 = target: T12, FNIII1 (human, UniProt P02751 610-702, limits assumed); assay: binding assay, method not restated
T12 construct: domain: FNIII1; Recombinant domain; also called first type III repeat of FN

FNIII3-6 [20] = target: T7, FNIII3-6; assay: binding assay, method not restated
[21] = target: T8, FNIII12-15 (H), heparinII-binding …; assay: binding assay, method not restated
FNIII12-14 [22] = target: T9, FNIII12-14; assay: binding assay, method not restated
intact fibronectin [23] = target: T11, intact fibronectin; assay: equilibrium binding to FN adsorbed to a surface or coupled to agarose beads
[24] = target: B5; assay: binding assay, method not restated
[25] = target: B5; assay: equilibrium binding

B1: ILRWRPKNSVGRWK (peptide)
peptide: ILRWRPKNSVGRWK
Kd [1]: 0.4 µM

B2: vascular endothelial growth factor A (VEGF-A) (ligand, UniProt P15692-4 27-191, looked up)
chain: APMAEGGGQNHHEVVKFMDVYQRSYCHPIETLVDIFQEYPDEIEYIFKPSCVPLMRCGGCCNDEGLECVPTEESNITMQIMRIKPHQGQHIGEMSFLQHNKCECRPKKDRARQENPCGPCSERRKHLFVQDPQTCKCSCKNTDSRCKARQLELNERTCRCDKPRR
Kd [2]: 0.0006 µM | binding result [3]: no binding | binding result [4]: no binding | binding result (FNIII1-11): no binding

B3: FN630-648 (WNAPQPSHISKYILRWRPK) (peptide)
peptide: WNAPQPSHISKYILRWRPK
Kd [5]: 0.34 µM

B4: peptide 3 (NGQTPIQRTIKPDVRSYTITGLQPGT) (peptide)
peptide: NGQTPIQRTIKPDVRSYTITGLQPGT
notes: Synthetic peptide
Kd [1]: 0.14 µM | binding result (EGF): no binding | binding result (TGF-α): no binding | binding result (FGF-1): no binding

B5
Kd (FNIII1-7 [6]): 0.075 µM | Kd (FNIII1-2 [7]): 0.037 µM | binding result (FNIII3-6 [8]): no binding | Kd [9]: 0.021 µM | Kd [10]: 0.0068 µM | Kd (FNIII12-14 [11]): 0.035 µM | Kd (FNIII12-13): 0.075 µM | Kd (FNIII1-2 [12]): 0.0091 µM | binding result [4]: no binding | Kd (FNIII1-7 [13]): 0.1 µM | Kd [14]: 0.017 µM | binding result [15]: no binding | Kd (intact fibronectin [16]): 0.049 µM | Kd (FNIII12-14 [17]): 0.055 µM

B6
binding result [2]: no binding | binding result (FNIII1-7 [18]): no binding | binding result [19]: no binding | binding result (FNIII1): no binding | binding result (FNIII3-6 [20]): no binding | binding result [21]: no binding | binding result (FNIII12-14 [22]): no binding | binding result [4]: no binding | binding result (intact fibronectin [23]): no binding

B7: peptide 4 (QPSVGQQMIFEEHGFRRTTPPTTAT) (peptide)
peptide: QPSVGQQMIFEEHGFRRTTPPTTAT
notes: Synthetic peptide
Kd [1]: 0.1 µM | binding result (EGF): no binding | binding result (TGF-α): no binding | binding result (FGF-1): no binding

B8: peptide 2 (QLISIQQYGHQEVTRFDFTTTSTST) (peptide)
peptide: QLISIQQYGHQEVTRFDFTTTSTST
notes: Synthetic peptide
Kd [1]: 0.27 µM | Kd [24]: 0.11 µM | binding result (EGF): no binding | binding result (TGF-α): no binding | binding result (FGF-1): no binding

B9: FN641-654 (YILRWRPKNSVGRW) (peptide)
peptide: YILRWRPKNSVGRW
binding result [5]: no binding

B10: FN634-648 (QPSHISKYILRWRPK) (peptide)
peptide: QPSHISKYILRWRPK
Kd [1]: 0.44 µM | Kd [5]: 0.45 µM

B11: FN634-641 (QPSHISKY) (peptide)
peptide: QPSHISKY
binding result [5]: no binding

B12: FN648-667 (KNSVGRWKEATIPGHLNSYT) (peptide)
peptide: KNSVGRWKEATIPGHLNSYT
binding result [5]: no binding

B13: peptide 1 (QPSHISKYILRWRPKNSVGRWKEAT) (peptide)
peptide: QPSHISKYILRWRPKNSVGRWKEAT
notes: Synthetic peptide; also called FN634-658
Kd [1]: 0.13 µM | Kd [25]: 0.25 µM | binding result (EGF): no binding | binding result (TGF-α): no binding | binding result (FGF-1): no binding
